Where no end group is shown, it is not given here. [ ]: non-standard residue; d: D form. pS = N[C@@H](COP(=O)(O)O)C(=O)O
B1: Human GABARAP (residues 1-116) (natural protein)
chain: MKFVYKEEHPFEKRRSEGEKIRKKYPDRVPVIVEKAPKARIGDLDKKKYLVPSDLTVGQFYFLIRKRIHLRAEDALFFFVNNVIPPTSATMGQLYQEHHEEDFFLYIAYSDESVYG

molecular target: TEX264 269-278 S271A,S272A; experiment: ITC

Binder | Kd [µM]
B1 | 72

molecular target: Y5F H9A K48A; experiment: ITC

Binder | Kd [µM]
SG[pS][pS]FEELDL [phosphorylated TEX264 LIR (residues 269-278 with p-S271,p-S272)] | 30

molecular target: Human LC3B (residues 1-120) (human, UniProt Q9GZQ8 1-120); experiment: ITC

Binder | Kd [µM]
SGEEFEELDL [phosphomimetic TEX264^(S271, 272E) peptide (2SE-LIR)] | 5.2
DGDDFEELDL [phosphomimetic TEX264^(S269D, S271D, S272D) peptide (3SD-LIR)] | 6.8
SGS[pS]FEELDL [TEX264 peptide (residues 269-278) with S272 phosphorylation (p-S272)] | 0.57
SG[pS][pS]FEELDL [phosphorylated TEX264 LIR (residues 269-278 with p-S271,p-S272)] | 0.37
SGSSFEELDL [TEX264 LIR peptide (residues 269-278), unphosphorylated wild type] | 21
SGDDFEELDL [phosphomimetic TEX264^(S271D, S272D) peptide (2SD-LIR)] | 7.6
SGASGSSFEELDL [TEX264 LIR peptide (residues 266-278), unphosphorylated] | 39
[pS]G[pS][pS]FEELDL [TEX264 peptide (residues 269-278) with p-S269, p-S271, p-S272] | 0.25
[pS]GASGSSFEELDL [TEX264 LIR peptide (residues 266-278) with S266 phosphorylation (p-S266)] | 22
EGEEFEELDL [phosphomimetic TEX264^(S269E, S271E, S272E) peptide (3SE-LIR)] | 5

molecular target: GABARAP Y5F H9A mutant (human, UniProt O95166 1-116, Y5F | H9A); experiment: ITC
Sequence (O95166 1-116 Y5F/H9A): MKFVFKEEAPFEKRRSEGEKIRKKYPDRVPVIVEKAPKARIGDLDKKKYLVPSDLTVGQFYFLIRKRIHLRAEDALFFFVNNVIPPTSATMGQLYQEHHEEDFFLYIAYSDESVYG

Binder | Kd [µM]
SG[pS][pS]FEELDL [phosphorylated TEX264 LIR (residues 269-278 with p-S271,p-S272)] | 2.2

molecular target: B1; experiment: ITC

Binder | Kd [µM]
SGEEFEELDL [phosphomimetic TEX264^(S271, 272E) peptide (2SE-LIR)] | 2.3
DGDDFEELDL [phosphomimetic TEX264^(S269D, S271D, S272D) peptide (3SD-LIR)] | 2.2
SGS[pS]FEELDL [TEX264 peptide (residues 269-278) with S272 phosphorylation (p-S272)] | 2.1
SG[pS][pS]FEELDL [phosphorylated TEX264 LIR (residues 269-278 with p-S271,p-S272)] | 0.52
SGSSFEELDL [TEX264 LIR peptide (residues 269-278), unphosphorylated wild type] | 47
SGDDFEELDL [phosphomimetic TEX264^(S271D, S272D) peptide (2SD-LIR)] | 2.1
SGASGSSFEELDL [TEX264 LIR peptide (residues 266-278), unphosphorylated] | 61
[pS]G[pS][pS]FEELDL [TEX264 peptide (residues 269-278) with p-S269, p-S271, p-S272] | 0.25
[pS]GASGSSFEELDL [TEX264 LIR peptide (residues 266-278) with S266 phosphorylation (p-S266)] | 9.3
EGEEFEELDL [phosphomimetic TEX264^(S269E, S271E, S272E) peptide (3SE-LIR)] | 2.2

— publication doi:10.1101/2022.02.11.480038 (2022)
